Experimental data: the DeepSol protein solubility set

Experiment: soluble on expression in E. coli; label from the status in PepcDB or PDB records

Sequence | soluble on expression in E. coli
MTHNQSTALLTDMYELTMLQSALADGTAERQCTFEVFGRRLPNERRYGVVAGTPRVLEAVQNFRFTEAQLASLTFLNDTTLEYLRNYRFAGHIDGYREGELYFPHSPILTVRGTFAECVILETVILSIMNADSAVATAAARMVTAADGRTIIEMGSRRTHEYAAVTATRAAYLAGFSATSNLEAVHRYGIPGSGTAAHAWTLLHVNEDGTPNEKSAFESQVRAQGTGTTLLIDTYDIAQGVRNAIEVAGPELGAVRIDSGDLGVMTRKIRQELDNLGAHNTQIVVSSDLDEYAIAGLRGNPVDVFGVGTSVVTGSGAPTAGMVYKLVEVDGNPVSKRSRGKGMLGGAKRAARTHRASGTAVEELVFPYEHPVPQVGTLTSVELTIPLMRDGVVVEGLPTLEESRAYLAQQLVTIPWEGLALSRDEPVLATRHVGFDQLEHHHHHH | soluble
MGSDKIHHHHHHMNTTASPSRLLGVGLYTASQASSYTGIPAKDIRRWMFGYSASGVEHPGLWAPEIAFLDDKLLGFHDLLEIRFVHAFRQHGVSLQAIRSASLQAREMFGQRYPFTCRRFQTDGRDIFATVLDETGDEALLDLVKRQYAFKQVITPSLYEGIDYAGEESAKRWYPVKRSKAVVLDPARNFGKPVLTITGIDTAAIYHSYLAEGQSAKRVALLYEIPPAAVEAAVNFEHRIAA | not soluble
MSADEPSPEDEKYLESLRDLLKISQEFDASNAKQNDEPEKTAVEVESAETRTDESEKSIDIPREQQLLPSERVEPLKSMVEPEYVKKVIRQMDTMTAEQLKQALMKIKVSTGGNKKTLRKRVAQYYRKENALLNRKMEPNADKTARFFDYLIAIDFECTCVEIIYDYPHEIIELPAVLIDVREMKIISEFRTYVRPVRNPKLSEFCMQFTKIAQETVDAAPYFREALQRLYTWMRKFNLGQKNSRFAFVTDGPHDMWKFMQFQCLLSNIRMPHMFRSFINIKKTFKEKFNGLIKGNGKSGIENMLERLDLSFVGNKHSGLDDATNIAAIAIQMMKLKIELRINQKCSYKENQRSAARKDEERELEDAANVDLTSVDISRRDFQLWMRRLPLKLSSVTRREFINEEYLDCDSCDDLTDDKVKHLHSCDIYEIFDEKTSASFTDSKCLIC | soluble
MCTDHQWINSAIRKIEADYQRSADTHLIKLDLPCVSGVDIYLKDESTHPTGSLKHRLARSLFLYGLCNGWIGPETTIIESSSGSTAVSEAYFARLLGLPFIAVMPKCTARKKIEQIQFYGGKAHLVDRSDQIYAESHRLAKELKGHYMDQFTYAERATDWRGNSNIADSIFSQMQMEQHPVPSWIVMSPGTGGTSATIGRFIRYQQYNTKLCVVDPENSVFYDYYRTRNAELTRDCGSKIEGIGRPRVEPSFIPDVVDEMRAIPDAASVATIYWLEKILGRKAGASTGTNLYGALQLACEMKRRGEQGSIVTLLCDSGERYLDTYYNSEWVKNNIGDLSKYLHKLETFSATGCLD | not soluble
MGSDKIHHHHHHYATPEEYYKATGKKITEYHESPMLTKLVEEGKLPPVEQRLPEEPLVVQPVEKVGQFGGTWRRVWKGPSDRWGISKLIEVKLAFWDKEGGKLVPGLAKSWEVLENGRVYIFHLRKGVKWSDGAPYTAHDIVFWVNDIVGNDDITPSKPDWYNIGVKVEALDDYTVKFEFSKPYGLFLLKVPYGGFTGAPAHYLKQFHPKYTPMEEIEKKMVEGVHNTWVDLFNDKNDFLENTELPTLSPWKPITDPTEQFYILERNPYFWAVDIEGNQLPYIDYVRHEYVKNDEVILLKAISGEIDMQWRHIGGLGAGAGNFTLLMENSQSGGYRVLKWIAANGSASRISLNYAHSDEVLRKVFNDVRFRQALSLAINREEINEILFNGLAEPRQASLVSGSPYFDPEWEKAYAEYDPDRANKLLDEMGLKWDDKHEYRLLPDGRPLRFTITVTGQFHVDVWTMVKEYWKQIGVWVEIENLERSLFYERADAGDFDAMVWNMDRAAQPLSSPMVIFPGSENIADFWYIGWSGWISYYIDKNIRGVEPEEVPEGPEPPEVVYRLVDLYYQIASTPDPDKIKELMAEATKIHRENLWMIGTVGEDLSPAIAKNNFRNVPEFLVTDDVLRTPLNAMPMQFFIEQK | not soluble
SSGRSVRAETRSRAKDDIKKVMAATERVRRWEKKWVTVGDTSLRIFKWVPVTETKQIYKPKGAGPAVRELKGFPTDVVLENARSVLLDFQDDNSNQSFLSDAYQSNTKVDSSSNSSPQHVSEAVSPSHPPYYRTEDSQPPTLGQESMEAEREASTTSSEVTDEPPTLIKEDVLSLSTQEEEEAIGAPPLKRVCTEHNSTVS | soluble
AHHHHHHGSPRLIKDRVPTPERSVGERVRDFGEVNLGYSWELALREAERCLQCPVEYAPCIKGCPVHINIPGFIKALRENRDNPSKAVREALRIIWRDNTLPAITGRVCPQEEQCEGACVVGKVGDPINIGKLERFVADYAREHGIDDELLLEEIKGIKRNGKKVAIIGAGPAGLTCAADLAKMGYEVTIYEALHQPGGVLIYGIPEFRLPKEIVKKELENLRRLGVKIETNVLVGKTITFEELREEYDAIFIGTGAGTPRIYPWPGVNLNGIYSANEFLTRINLMKAYKFPEYDTPIKVGKRVAVIGGGNTAMDAARSALRLGAEVWILYRRTRKEMTAREEEIKHAEEEGVKFMFLVTPKRFIGDENGNLKAIELEKMKLGEPDESGRRRPIPTGETFIMEFDTAIIAIGQTPNKTFLETVPGLKVDEWGRIVVDENLMTSIPGVFAGGDAIRGEATVILAMGDGRKAAKAIHQYLSKEK | soluble
MGLVGLHSGTIDMEFIGVEDHGDEEGKQIAVSVISSGKNADKTEDPDSLIFTGFGGTDMYHGQPCNQKLERLNIPLEAAFRKKSIVRVVRCMKDEKRTNGNIYIYDGTYMITNRWEEEGQNGFIVFKFKLVREPDQKPAFGIWKSIQNWRNGLSIRPGLILEDLSNGAENLKVCLVNEVDKENGPALFRYVTSLIHEVINNIPSMVDRCACGRRSCGSKHVFREKLSVSSSLVISAKKSGNVARFMNHSCSPNVFWQSIAREQNGLWCLYIGFFAMKHIPPLTELRYDYGKSRGGGKKMCLCRTKKCCGSFG | soluble
AMNAYYIQDRLEAQSWARHYQQLAREEKEAELADDMEKGIPQHLFESLCIDHLQRHGASKKSITRAFDDDVEFQERMAEHIRYMVETIAHHQVDIDSEV | soluble
MCGRFAYIASYDKLKYQFHLANAIEVPPRFNISPGADVLCLVETDGHKIQCVLLRWGFIPSWATDRKKLGNLINARAETVFEKPTFRQSIKSKRCLIPMSGFYEWRQEDGVKQPYFFQKKNHDLLAVAAIRDTWQQSDEVIHSCCLITTDANAFMQPVHNRMPVILGEEAQAIWLNNTQYDKAQLMALMKPYPYEDLEGYRVTTLVNKANFDHPLAMEPLSELEHHHHHH | soluble
MGSDKIHHHHHHMTNAAKTGVERTYEYKERINGILGMMEQAPAEQRNPVLEGLLRLIMETNERTIDCAENGKPFVSTWYGNAPEILTAMDIHFIVPVFDILLHEYFTDLYDVKEADKISLPDDICSLIRFGAYAIENKLLPRPTAIISMLEPCDAELMLHQYYQSSEHWGGVPTFGLDPAYGSTDEDFMYFAGELKRLIHFLVEITGQKYDVDKLRKVVAETNTQYELWAEYNELRRVTPCPHGSFQGSVPLWTLTQFISSGDPRATELIRMMIMDAEAKVKAGIGAVPNEQIRILWADLAPQWGDLLAPWLAEEWGANVVMDYQGYSPYTHIDTTSEDTMLYGLARRALHEVPMIRQGRGTVEVMIEDMTRIIKDYTINCVFWPGHMGHKDVSGSVHFMQELCRSLNVPLLCLTTSLFDERYTPLDKVKQQMSEFFEATGWSKNSST | not soluble
MSLNSQGYAVVDFETTGLSPAKGDRAIEIGLVHVAPDGTLEDEHETLIHVDRSVGASWVHHITARELLHAPDFEGIAHELRDLLAGRVFVAHNVSFDSRFLLAEYSRMGASIPVDQSTMLCTMKLSRSLIGRGKLADCCEYFGIANEDAHSALSDAHATAILLGRLLEADPKWPGFQRRLDAAGAAAEQWPTFATLPKKEWLPRGTHLAEGHHHHHH | soluble
MKIRQEKPAEYQAVERLTYQAFKELNLTENWRPTEHFIVHLLRESADFIPELSLVSETDQGKLTGHIMSSKAKLRLPDHTEKAVLTVGPLSVHPEAQNTGVGSALIKHSVQKAKELGIGGLIILGHPTYYTKFGFVPATTFQITLPEKETSEALLALELLPGYFGTSGGEWHFSTCFAYPETHPAELEAFEAELGINE | not soluble
MAHHHHHHMAKRKYMSKVDGKINVGEKHQAKIPDLVTDENEKTNVEETQPVENVNNVNDDVRKNKKAKTEQVEETTNNAAEEQVQQEEPVETAPAHEEPAHGEEAQGEEVQGEEAQGEEVQGEEVQGEEAHEEPANDEPANDEPANDEPANEEPANEEPANEEPANEEPANEEPANEEPANEEPANE | not soluble
MRIYLIGFMCSGKSTVGSLLSRSLNIPFYDVDEEVQKREGLSIPQIFEKKGEAYFRKLEFEVLKDLSEKENVVISTGGGLGANEEALNFMKSRGTTVFIDIPFEVFLERCKDSKERPLLKRPLDEIKNLFEERRKIYSKADIKVKGEKPPEEVVKEILLSLEGNALGG | soluble
MADYWKDVLPVDPYVVKSRSMLQDIDRQIITQLYQPLIGPVAFSLYMTLWGELEQNRLWGGESTHRQLMGMTQSNLKTIHQEQGKLEGIGLLKVYMKESERQERLFIYELLPPLRPNEFFEDGMLNVFLYNRVGKTKYQQLKQFFTHPAISEDAKDITRPFNHAFESLQPSEWKLTSDMEETVRLAEGSEYTSVGQSPSYTITEDVFDFDLFLAGLSETMIPRKAMTQQVRDTIKKLSYLYGIDPLQMQNVVMSAIDERDVITTEALRKAASDWYQIERNGQLPDLVEKTQPVHLREGEQPAEEDSLDGKLIALLEAISPKKLLQDIADGTEPSKADLKIIEEIMFEQKLEPGVTNVLIYYVMLKTDMKLSKNYIQKIASHWARKKVKTVREAMKLAIEENRQYLEWAEGKTKSSKRNQKVIREEKLPDWMTEKETASDSESGQQKLHPQDLEEQKKKMMEEMQKLKKYSAY | not soluble
MVRMALEGMSKRKRKRSVQEGENPDDGVRGSPPEDYRLGQVASSLFRGEHHSRGGTGRLASLFSSLEPQIQPVYVPVPKQTIKKTKRNEEEESTSQIERPLSQEPAKKVKAKKKHTNAEKKLADRESALASADLEEEIHQKQGQKRKNSQPGVKVADRKILDDTEDTVVSQRKKIQINQEEERLKNERTVFVGNLPVTCNKKKLKSFFKEYGQIESVRFRSLVCFIPPLEHHHHHH | not soluble
MGHHHHHHSHMPSLNLFPSVSDSGFWTGGTALRNPPSRPPYLSIAMTTLVSLATDLKYGSTLLGRIKTVLDASVAQLTVADVTTEDIVNFLNSLNGIDHELFSFIRTYPVFFVLHLCTLDRTQTYTSGQVIKTIKHLITTFREVLCEDMGADNDSIISNSNILKDCSWYLTKLETEQMSTSIPHLPKSCITFPCMEQVHHLVHNATLATLPNSWTSPLPSLNSVYVQWFVLSYKHKVFPDEVPSSNIQDLADKMTNIYKHLFVPHTSQLTGASIILARSLDILSQFTPLEKIPSNSPAVAFGDDELSNIPSNCHLMFGHLIESIYMGMTYACTLGAVEQFIREAFDVVLGVASEIKRTASLSDLPTVTKLVNIKRILIEHGLSETRCEEYAQALPKWQHREGIYPFEETLDHFHQKLSTLIKFCLEFYNTLMLVSPTSISHSYLKENNYLLQLDRKSAASQGQGPDDINLLEKVFTFVYPQVPGQDLQRIHDAIDSDIMRTLFFSWVNRNWGIVLITQNPLMEPSCEHQVSEERVAAYCKRMPVGDLSYEPAMVSHKMFYKYFIRHIVGPTIQGIFSRKTSRNRALFQIRWLLSFAITDTPQLQEIRRPLGMFYFELLDIINGTNKPSAMKNLLDHALDLKKKINKINQTFSIPQDLILYLFVLDTGASYINSVDYITAIIPKVEHLLLRGRNILRLGSILCHTKYNYHPLTHQFTILSSSGQILEVHLETLKSLISQVEKDHSQLLMEITDLEGELRGEYSTVLSLLQDLEAYKQHELGIEFDTEPWNQLKQSFSGILSRISSGLSLLSKGCSSCLRKRFHDLFSQEIITPTILKAASAGNVEIIKNLKEIPVNLMAPPTDTSMTQAGGNPTDEDLTMLYSTYPQIFSQNAARGEKHPPQLKKYSSTYDRIPLDVNWQIFTQQTYTAEHAECPYTIVKIHDIIKLLS | not soluble
